Assay results: patent publication US6051418

Tests used:
[1] = target: Factor VIII dB695 (human) (UniProt P00451)
[2] = target: Factor VIII obtained from plasma
[3] = target: Factor VIII dB695-HCII (human)

second order rate constant of activation by thrombin (M^-1 s^-1 × 10^-6) [1]: 3e-06 M⁻¹ s⁻¹ | second order rate constant of activation by thrombin (M^-1 s^-1 × 10^-6) [2]: 2.1e-06 M⁻¹ s⁻¹ | second order rate constant of activation by thrombin (M^-1 s^-1 × 10^-6) [3]: 2.32e-05 M⁻¹ s⁻¹
Substance: thrombin (enzyme)
